Laboratory results as given in patent publication US20250122298A1 (OSSIANIX, published 2025).
Blank lines part the entries; values can stand above or below the binder they belong to.

Legend:
recombinant human TfR-1 [1] = biological target: T1, recombinant human TfR-1 (human, UniProt P02786 89-760, limits assumed); test: ELISA on coated hTfR1, crude ExpiHEK expression media, normalised to TXP1
T1 construct: also called hTfR-1; hTfR1
Experimental: FIG. 6. Expression level and hTfR1 binding of 20 single-region variants of TXP1 measured by ELISA. Variants were designed to remove potential MHCII binding motifs in each region separately with the mutations described in Table 5. Each deimmunized variant was transiently expressed in 0.5 ml scale in ExpiHEK cells and the crude media were tested by ELISA for hTfRIbinding and expression level in comparison to parental TXP1. The data were normalized to TXP1 and the variants with binding or expression >0.5-fold were evaluated further.
Mutating the primary anchoring residue in each MHCII binding motif was prioritized to minimize manipulation of the sequence with maximal reduction in binding score. Alternative positions were also considered when replacement of an anchor residue might disrupt the protein structure or where removing the anchor residue was insufficient to eliminate MHCII binding. Based on the in silico analyses, 20 single-region deimmunized variants of TXP1 (6 in region 1, 10 in region 2, and 4 in region 3) were genetically synthesized and evaluated (Table 5). Expression and hTfR1 binding were measured in crude media from transfected ExpiHEK cells (FIG. 6). […] Region 3 required all three substitutions to eliminate predicted MHCII binding, and all three mutations individually and when combined (TXP1-R3-1-4) were expressed well and retained parental levels of TfR-1 binding.

[2] = biological target: T2, recombinant cynomolgus TfR-1 (cynomolgus, UniProt H9EXL1 89-760 (rhesus entry)); test: SPR Biacore T200, multi-cycle kinetics, 1:1 model
T2 construct: also called cTfR-1; cTfR1

[3] = biological target: T2, recombinant cynomolgus TfR-1; test: ELISA, plate-coated recombinant cTfR1, anti-hFc HRP detection
Experimental: (§1) TfR1 ELISA. Nunc MaxiSorp plates were coated with 100 ul of 1 μg/ml of in-house purified recombinant human, cynomolgus TfR1 or HSA and incubated at 4° C. overnight. Plates were incubated with blocking buffer (2.5% non-fat dry milk in PBST) for 1 hr at RT. Serial dilutions of TXP1, TXPID1 or TXP1D4 were mixed with non-fat dry milk in PBST to a final concentration of 2.5% and incubated for 30 min. Blocked VNAR antibody solutions (100 μl) were transferred to the blocked plates and incubated for 1 hr. Plates were washed with PBST and incubated with anti-hFc HRP-conjugated antibody diluted 1:5,000 (Sigma) in blocking buffer for 30 min. Plates were washed and developed with SureBlue TMB substrate. Were indicated the velocity of colorimetric reaction development was measured in the kinetic mode at 370 nm and the maximum peak was used for quantitation (Vmax at 370 nm). Alternatively, the TMB reaction was stopped with 1% HCl and absorbance was measured at 450 nm (OD at 450 nm).

recombinant human TfR-1 [4] = biological target: T1, recombinant human TfR-1; test: ELISA, plate-coated recombinant hTfR1, anti-hFc HRP detection
Experimental: as §1

recombinant human TfR-1 [5] = biological target: T1, recombinant human TfR-1; test: SPR Biacore T200, His-tagged TfR1 captured by anti-His, multi-cycle kinetics, 1:1 model
Experimental: Binding kinetics. Binding kinetics of TXP1, TXP1D1 and TXP1D4 were determined by surface plasmon resonance (SPR) using a Biacore T200 (GE Healthcare). A His-capture kit (GE Healthcare) was used to immobilize anti-His antibodies on CM5 chips (as recommended by the manufacturer). His-tagged recombinant hTfR1 in 0.1% BSA in HBS-EP+ buffer (GE Healthcare) was captured at flow rate 10 μl/min. Analyte binding was measured using the multi-cycle kinetic SPR method. Starting analyte concentrations at 400 nM and serially diluted in 1:4 in seven steps. Association and dissociation were measured for 360s and 1500s respectively, with flow rate at 30 μl/min. The chips were regenerated in 10 mM Glycine-HCl, pH 1.5. Sensorgrams were fitted using 1:1 binding model and kinetic constants determined using Biacore T200 Evaluation software (Cytiva).

[6] = biological target: T3, cell surface human TfR1 on hCMEC/D3 and SH-SY5Y cells (human, UniProt P02786 1-760); test: flow cytometry on hCMEC/D3 cells on ice, binding to cell surface TfR1, anti-hFc Alexa647
T3 construct: whole, on cells; Endogenous receptor on the cell lines; also called cell surface TfR1; cell-surface hTfR1
Experimental: Functional activity of the fully deimmunized variants was assessed using the hCMEC/D3 human endothelial cell line and the SY-SH5Y human neuronal cell line. Binding to hCMEC/D3 cells was assessed by incubation with serial antibody dilutions for 1h on ice to avoid internalization. The cells were fixed and binding to cell surface TfR1 was measured by flow cytometry. […] Internalization via cell-surface hTfR1 was assessed using the hCMEC/D3 and SY-SH5Y cell lines by incubation with the antibodies for 1 hour at 37° C.
Flow cytometry. hCMEC/D3 cells were seeded onto V-bottom 96-well plates at a density of 1×10⁴ cells/well. All incubations were carried out on ice to prevent internalization. After blocking in PBS containing 10% BSA (FACS buffer), cells were incubated with serial dilutions of TXP1. Cells were stained with propidium iodine (PI; Biolegend) for 20 min, followed by anti-hFc conjugated to Alexa647 diluted 1:300 (Jackson ImmunoResearch) for 30 min. After fixation in 4% PFA for 15 min, the cells were analyzed on a CytoFlex flow cytometer (Beckman Coulter). Gating of cells stained with secondary antibody alone was used to set the negative threshold for and the fluorescence intensity of approximately 1000 cells per condition was measured. EC50 values were calculated using a four parametric non-linear regression model.

T2 sequence (chain, as listed by the source): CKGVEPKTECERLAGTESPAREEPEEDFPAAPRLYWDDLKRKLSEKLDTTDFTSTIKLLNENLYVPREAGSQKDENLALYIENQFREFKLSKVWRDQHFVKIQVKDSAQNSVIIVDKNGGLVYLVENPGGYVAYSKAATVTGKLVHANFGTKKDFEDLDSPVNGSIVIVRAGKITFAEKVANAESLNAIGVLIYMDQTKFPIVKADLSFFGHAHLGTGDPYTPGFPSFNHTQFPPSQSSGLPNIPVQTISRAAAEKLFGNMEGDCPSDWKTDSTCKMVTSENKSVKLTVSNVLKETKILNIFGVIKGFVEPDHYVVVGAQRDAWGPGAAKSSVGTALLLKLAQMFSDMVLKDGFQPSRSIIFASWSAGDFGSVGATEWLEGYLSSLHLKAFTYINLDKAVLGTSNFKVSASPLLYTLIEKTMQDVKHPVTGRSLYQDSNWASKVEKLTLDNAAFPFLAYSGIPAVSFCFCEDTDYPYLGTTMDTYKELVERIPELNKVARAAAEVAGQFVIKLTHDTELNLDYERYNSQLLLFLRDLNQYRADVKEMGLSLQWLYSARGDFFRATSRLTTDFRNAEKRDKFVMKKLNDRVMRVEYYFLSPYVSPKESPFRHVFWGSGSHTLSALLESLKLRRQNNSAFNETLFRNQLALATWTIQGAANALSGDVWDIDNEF
T1 sequence (P02786 89-760 limits assumed): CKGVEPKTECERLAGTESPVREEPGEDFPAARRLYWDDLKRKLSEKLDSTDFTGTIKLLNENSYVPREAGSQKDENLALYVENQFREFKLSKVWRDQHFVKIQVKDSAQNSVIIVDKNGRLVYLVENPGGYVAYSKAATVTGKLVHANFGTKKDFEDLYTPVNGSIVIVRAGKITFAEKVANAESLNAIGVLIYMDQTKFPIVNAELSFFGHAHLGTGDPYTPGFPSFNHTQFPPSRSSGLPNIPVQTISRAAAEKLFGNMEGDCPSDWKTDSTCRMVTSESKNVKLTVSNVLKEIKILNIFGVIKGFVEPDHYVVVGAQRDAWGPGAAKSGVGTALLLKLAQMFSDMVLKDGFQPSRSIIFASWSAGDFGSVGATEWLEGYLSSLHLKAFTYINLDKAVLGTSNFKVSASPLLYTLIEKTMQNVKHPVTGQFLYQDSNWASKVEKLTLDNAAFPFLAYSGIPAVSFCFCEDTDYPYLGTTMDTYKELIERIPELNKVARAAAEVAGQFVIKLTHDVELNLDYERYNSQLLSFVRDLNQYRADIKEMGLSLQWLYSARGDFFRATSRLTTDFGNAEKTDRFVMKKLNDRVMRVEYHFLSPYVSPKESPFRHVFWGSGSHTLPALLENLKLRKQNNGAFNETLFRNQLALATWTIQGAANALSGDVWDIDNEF
T3 sequence (P02786 whole entry): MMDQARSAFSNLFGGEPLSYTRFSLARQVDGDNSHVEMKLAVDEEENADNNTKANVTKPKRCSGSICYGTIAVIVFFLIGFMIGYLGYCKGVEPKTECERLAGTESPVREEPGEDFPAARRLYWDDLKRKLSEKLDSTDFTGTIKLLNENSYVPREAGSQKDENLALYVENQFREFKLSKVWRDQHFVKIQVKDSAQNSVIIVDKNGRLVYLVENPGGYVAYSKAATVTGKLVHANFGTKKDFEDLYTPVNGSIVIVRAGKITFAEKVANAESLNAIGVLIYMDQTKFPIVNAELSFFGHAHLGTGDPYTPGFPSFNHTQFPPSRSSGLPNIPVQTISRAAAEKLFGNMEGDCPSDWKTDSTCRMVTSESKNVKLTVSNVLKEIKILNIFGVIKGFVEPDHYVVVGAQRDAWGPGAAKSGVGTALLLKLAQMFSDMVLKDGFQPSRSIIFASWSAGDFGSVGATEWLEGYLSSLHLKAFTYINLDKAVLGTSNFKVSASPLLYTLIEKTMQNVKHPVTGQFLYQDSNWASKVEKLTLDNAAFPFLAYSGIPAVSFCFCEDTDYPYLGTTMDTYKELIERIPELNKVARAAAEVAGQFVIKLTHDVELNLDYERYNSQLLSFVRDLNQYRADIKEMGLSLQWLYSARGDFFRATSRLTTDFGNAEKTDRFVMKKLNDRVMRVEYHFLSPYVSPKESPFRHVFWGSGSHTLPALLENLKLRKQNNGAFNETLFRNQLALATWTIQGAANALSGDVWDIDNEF

hTfR1 binding relative to parental TXP1 (fold) (recombinant human TfR-1 [1]): 0.5 fold
B1: TXP1-R1-1 (Fc fusion)
chain: ARVDQTPQTATKETGESLTINCVLRDSNCALSSTYWYRKKSGSTNEENISKGGRYVETVNSGSKSFSLKINDLTVEDSGTYRCNVVGTWCMSWRDVYGGGTAVTVNA
notes: Single-region variant of TXP1; tested in crude expression media; not shown: human IgG1 Fc (hFc) with AEF mutations incl. deletion of G236 (printed AG236)

hTfR1 binding relative to parental TXP1 (fold) (recombinant human TfR-1 [1]): 0.5 fold
B2: TXP1-R2-5 (Fc fusion)
chain: ARVDQTPQTITKETGESLTINCVLRDSNCALSSTYWYRKKSGSTNEENISKGGRTVETVNSGSKSFSLKINDLTVEDSGTYRCNVVGTWCMSWRDVYGGGTAVTVNA
notes: as for B1

hTfR1 binding relative to parental TXP1 (fold) (recombinant human TfR-1 [1]): 0.5 fold
B3: TXP1-R2-6 (Fc fusion)
chain: ARVDQTPQTITKETGESLTINCVLRDSNCALSSTYWYRKKSGSTNEENISKGGRYVETVDSGTKSFSLKINDLTVEDSGTYRCNVVGTWCMSWRDVYGGGTAVTVNA
notes: as for B1

Kd [2]: 2.2 nM
koff [2]: 0.00016 s⁻¹
kon [2]: 73000 M⁻¹ s⁻¹
EC50 [3]: 2.2 nM
EC50 (recombinant human TfR-1 [4]): 3.5 nM
Kd (recombinant human TfR-1 [5]): 4.6 nM
koff (recombinant human TfR-1 [5]): 0.00031 s⁻¹
kon (recombinant human TfR-1 [5]): 67000 M⁻¹ s⁻¹
EC50 [6]: 1.6 nM
B4: TXP1D1 (Fc fusion)
chain: ARVDQTPQTATKETGESLTINCVLRDSNCALSSTYWYRKKSGSTNEENISKGGRYVETVDSGTKSFSLKINDLTVEDSGTYRCNVVGTWCMSWRDVSGDGTVVTVNA
notes: Fully deimmunized variant of TXP1, VNAR-hFc format; also called TXPID1; not shown: human IgG1 Fc (hFc) with AEF mutations incl. deletion of G236 (printed AG236)

Kd [2]: 1.7 nM
koff [2]: 0.00014 s⁻¹
kon [2]: 87000 M⁻¹ s⁻¹
EC50 [3]: 3 nM
EC50 (recombinant human TfR-1 [4]): 4.1 nM
Kd (recombinant human TfR-1 [5]): 3 nM
koff (recombinant human TfR-1 [5]): 0.00026 s⁻¹
kon (recombinant human TfR-1 [5]): 87000 M⁻¹ s⁻¹
EC50 [6]: 2.1 nM
B5: TXP1D4 (Fc fusion)
chain: ARVDQTPQTATKETGESLTINCVLRDSNCALSSTYWYRKKSGSTNEENISKGGKYVETVESGSKSFSLKINDLTVEDSGTYRCNVVGTWCMSWRDVSGDGTVVTVNA
notes: Fully deimmunized variant of TXP1, VNAR-hFc format; also called TXPID4; not shown: human IgG1 Fc (hFc) with AEF mutations incl. deletion of G236 (printed AG236)

hTfR1 binding relative to parental TXP1 (fold) (recombinant human TfR-1 [1]): 0.5 fold
B6: TXP1-R2-4 (Fc fusion)
chain: ARVDQTPQTITKETGESLTINCVLRDSNCALSSTYWYRKKSGSTNEENISKGGRSVETVNSGSKSFSLKINDLTVEDSGTYRCNVVGTWCMSWRDVYGGGTAVTVNA
notes: as for B1

hTfR1 binding relative to parental TXP1 (fold) (recombinant human TfR-1 [1]): 0.5 fold
B7: TXP1-R2-2 (Fc fusion)
chain: ARVDQTPQTITKETGESLTINCVLRDSNCALSSTYWYRKKSGSTNEENISKGGRHVETVNSGSKSFSLKINDLTVEDSGTYRCNVVGTWCMSWRDVYGGGTAVTVNA
notes: as for B1

hTfR1 binding relative to parental TXP1 (fold) (recombinant human TfR-1 [1]): 0.5 fold
B8: TXP1-R1-4 (Fc fusion)
chain: ARVDQTPQTTTKETGESLTINCVLRDSNCALSSTYWYRKKSGSTNEENISKGGRYVETVNSGSKSFSLKINDLTVEDSGTYRCNVVGTWCMSWRDVYGGGTAVTVNA
notes: as for B1

hTfR1 binding relative to parental TXP1 (fold) (recombinant human TfR-1 [1]): 0.5 fold
B9: TXP1-R1-2 (Fc fusion)
chain: ARVDQTPQTETKETGESLTINCVLRDSNCALSSTYWYRKKSGSTNEENISKGGRYVETVNSGSKSFSLKINDLTVEDSGTYRCNVVGTWCMSWRDVYGGGTAVTVNA
notes: as for B1

hTfR1 binding relative to parental TXP1 (fold) (recombinant human TfR-1 [1]): 0.5 fold
B10: TXP1-R2-9 (Fc fusion)
chain: ARVDQTPQTITKETGESLTINCVLRDSNCALSSTYWYRKKSGSTNEENISKGGKYVETVESGSKSFSLKINDLTVEDSGTYRCNVVGTWCMSWRDVYGGGTAVTVNA
notes: as for B1

hTfR1 binding relative to parental TXP1 (fold) (recombinant human TfR-1 [1]): 0.5 fold
B11: TXP1-R1-3 (Fc fusion)
chain: ARVDQTPQTSTKETGESLTINCVLRDSNCALSSTYWYRKKSGSTNEENISKGGRYVETVNSGSKSFSLKINDLTVEDSGTYRCNVVGTWCMSWRDVYGGGTAVTVNA
notes: as for B1

hTfR1 binding relative to parental TXP1 (fold) (recombinant human TfR-1 [1]): 0.5 fold
B12: TXP1-R2-3 (Fc fusion)
chain: ARVDQTPQTITKETGESLTINCVLRDSNCALSSTYWYRKKSGSTNEENISKGGRNVETVNSGSKSFSLKINDLTVEDSGTYRCNVVGTWCMSWRDVYGGGTAVTVNA
notes: as for B1

hTfR1 binding relative to parental TXP1 (fold) (recombinant human TfR-1 [1]): 0.5 fold
B13: TXP1-R2-10 (Fc fusion)
chain: ARVDQTPQTITKETGESLTINCVLRDSNCALSSTYWYRKKSGSTNEENISKGGKYVETVQSGSKSFSLKINDLTVEDSGTYRCNVVGTWCMSWRDVYGGGTAVTVNA
notes: as for B1
